Measured values from paper PMC11574045, “A cofactor-induced repressive type of transcription factor condensation can be induced by synthetic peptides to suppress tumorigenesis” (The EMBO Journal, 2024).

B1: BLZF1 (protein, UniProt Q9H2G9 1-400, looked up)
Golgin-45: MTTKNLETKVTVTSSPIRGAGDGMETEEPPKSVEVTSGVQSRKHHSLQSPWKKAVPSESPGVLQLGKMLTEKAMEVKAVRILVPKAAITHDIPNKNTKVKSLGHHKGEFLGQSEGVIEPNKELSEVKNVLEKLKNSERRLLQDKEGLSNQLRVQTEVNRELKKLLVASVGDDLQYHFERLAREKNQLILENEALGRNTAQLSEQLERMSIQCDVWRSKFLASRVMADELTNSRAALQRQNRDAHGAIQDLLSEREQFRQEMIATQKLLEELLVSLQWGREQTYSPSVQPHSTAELALTNHKLAKAVNSHLLGNVGINNQKKIPSTVEFCSTPAEKMAETVLRILDPVTCKESSPDNPFFESSPTTLLATKKNIGRFHPYTRYENITFNCCNHCRGELIAL
B2: THAP10 (protein, UniProt Q9P2Z0 1-257, looked up)
THAP domain-containing …: MPARCVAAHCGNTTKSGKSLFRFPKDRAVRLLWDRFVRGCRADWYGGNDRSVICSDHFAPACFDVSSVIQKNLRFSQRLRLVAGAVPTLHRVPAPAPKRGEEGDQAGRLDTRGELQAARHSEAAPGPVSCTRPRAGKQAAASQITCENELVQTQPHADNPSNTVTSVPTHCEEGPVHKSTQISLKRPRHRSVGIQAKVKAFGKRLCNATTQTEELWSRTSSLFDIYSSDSETDTDWDIKSEQSDLSYMAVQVKEETC
B3: THAP6 (protein, UniProt Q8TBB0 1-222, looked up)
THAP domain-containing …: MVKCCSAIGCASRCLPNSKLKGLTFHVFPTDENIKRKWVLAMKRLDVNAAGIWEPKKGDVLCSRHFKKTDFDRSAPNIKLKPGVIPSIFDSPYHLQGKREKLHCRKNFTLKTVPATNYNHHLVGASSCIEEFQSQFIFEHSYSVMDSPKKLKHKLDHVIGELEDTKESLRNVLDREKRFQKSLRKTIRELKDECLISQETANRLDTFCWDCCQESIEQDYIS
B4: THAP4 (protein, UniProt Q8WY91 1-577, looked up)
Peroxynitrite isomerase THAP4: MVICCAAVNCSNRQGKGEKRAVSFHRFPLKDSKRLIQWLKAVQRDNWTPTKYSFLCSEHFTKDSFSKRLEDQHRLLKPTAVPSIFHLTEKKRGAGGHGRTRRKDASKATGGVRGHSSAATSRGAAGWSPSSSGNPMAKPESRRLKQAALQGEATPRAAQEAASQEQAQQALERTPGDGLATMVAGSQGKAEASATDAGDESATSSIEGGVTDKSGISMDDFTPPGSGACKFIGSLHSYSFSSKHTRERPSVPREPIDRKRLKKDVEPSCSGSSLGPDKGLAQSPPSSSLTATPQKPSQSPSAPPADVTPKPATEAVQSEHSDASPMSINEVILSASGACKLIDSLHSYCFSSRQNKSQVCCLREQVEKKNGELKSLRQRVSRSDSQVRKLQEKLDELRRVSVPYPSSLLSPSREPPKMNPVVEPLSWMLGTWLSDPPGAGTYPTLQPFQYLEEVHISHVGQPMLNFSFNSFHPDTRKPMHRECGFIRLKPDTNKVAFVSAQNTGVVEVEEGEVNGQELCIASHSIARISFAKEPHVEQITRKFRLNSEGKLEQTVSMATTTQPMTQHLHVTYKKVTP
B5: TGIF2LY (protein, UniProt Q8IUE0 1-185, looked up)
Homeobox protein TGIF2LY: MEAAADGPAETQSPVEKDSPAKTQSPAQDTSIMSRNNADTGRVLALPEHKKKRKGNLPAESVKILRDWMYKHRFKAYPSEEEKQMLSEKTNLSLLRISNWFINARRRILPDMLQQRRNDPIIGHKTGKDAHATHLQSTEASVPAKSGPVVQTMYKACPCGPCQRARCQERSNQIRSRPLARSSPE
B6: THAP1 (protein, UniProt Q9NVV9 1-213, looked up)
THAP domain-containing …: MVQSCSAYGCKNRYDKDKPVSFHKFPLTRPSLCKEWEAAVRRKNFKPTKYSSICSEHFTPDCFKRECNNKLLKENAVPTIFLCTEPHDKKEDLLEPQEQLPPPPLPPPVSQVDAAIGLLMPPLQTPVNLSVFCDHNYTVEDTMHQRKRIHQLEQQVEKLRKKLKTAQQRCRRQERQLEKLKEVVHFQKEKDDVSERGYVILPNDYFEIVEVPA

system: HEK293FT cells transfected with TF library; assay: Screening of TF condensates based on fluorescent puncta; assay type: cell-based; details: Figure 1B numerical data; TF library screen, one value per transcriptional factor
Method in brief: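 Puncta scoring used automated confocal imaging of fifty random fields per well, after anti-Flag or anti-GAL4 immunofluorescence (Alexa 488) in PFA-fixed cells. HEK293FT cells carried TF library plasmids delivered with PEI (1.6 μg/ml DNA). At 60 h they were switched for 12 h to glucose-containing or glucose-free medium.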

Going from B1 to B2, the “Z score of condensed fraction” value rises from -1.161 to 1.236.

Compared with B3, B4 is lower in “Z score of condensed fraction” value: 2.571 for the first, -0.8956 for the second.

First: B5
Second: B6
The “Z score of condensed fraction” value of the first is higher: 1.271 for the first, -0.6542 for the second.
